The labels stand for the following.
B1: mRNA-splicing (parent)
chain: AGUUGCUGCUGGGAGCUCCAGCACAGUGAAAUGGACAGAAGGGCAGAGCAA

Variants of B1 are the subject of the series. The series can be described thus: exon inclusion enrichment index; higher = more inclusion; WT1 exon 5 minigene, HEK293.
In the case of AGUUAUAUCCGGGAGCUCCAGCACAGUGAAAUGGACAGAAGGGCAGAGCAA [G5A C6U U7A G8U U10C], the “exon inclusion enrichment index” value was determined as 1.03. Regarding AGUUGCUGCUGGAUGCUCCAGCACAGUGAAAUGGACAGAAGGGCAGAGCAA [G13A A14U], the “exon inclusion enrichment index” value was determined as 0.0995. In the case of AGUUCUGACAGGGAGCUCCAGCACAGUGAAAUGGACAGAAGGGCAGAGCAA [G5C C6U U7G G8A U10A] it was 0.0911; in that of AGUUAGGGAUGGGAGCUCCAGCACAGUGAAAUGGACAGACGGGCAGAGCAA [G5A C6G U7G C9A A40C], 0.00374.

AGUUGAAUACGGGAGCUCCAGCACAGUGAAAUGGACAGAAGGGCAGAGCAA [C6A U7A G8U C9A U10C]: the “exon inclusion enrichment index” value amounted to 1.38. In the case of AGUUAUAUAUGCCAGCUCCAGCACAGUGAAAUGGACAGAAGGGCAGAGCAA [G5A C6U U7A G8U C9A G12C G13C] it was 0.0141; in that of AGUUACCACCGGGAGCUCCAGCACAGUGAAAUGGACAGAAGGAGAGAGCAA [G5A U7C G8A U10C G43A C44G], 4.11.

Consider AGUUGACGACGGGAGCUCCAGCGCAGUGAAAUGGACAGAAGGGCAGAGCAA [C6A U7C C9A U10C A23G], for which the “exon inclusion enrichment index” value is 4.36. As for AGUUGACGACGGGAGCUCCAGCACAGUGAAAUGGACAGUCGGGCAGAGCAA [C6A U7C C9A U10C A39U A40C], the figure is 3.44. In the case of AGUUCGCGCCGCAAGCUCCAGCACAGUGAAAUGGACAGAAGGGCAGAGCAA [G5C C6G U7C U10C G12C G13A] it was 0.8. As for AGUUGCUGCUGGGAGCUCCAGCAGCGUGAAAUGGACAGAAGGGCAGAGCAA [C24G A25C], the figure is 0.0375; as for AGUUGAAGAAGGGAUCUCCAGCACAGUGAAAUGGACAGAAGGGCAGAGCAA [C6A U7A C9A U10A G15U], 0.786; as for AGUUACCACCGGGAGCUCCAGCACAGUGAAAUGGAACGAAGGGCAGAGCAA [G5A U7C G8A U10C C36A A37C], 2.61.

With ACUUCACACAGGGAGCUCCAGCACAGUGAAAUGGACAGAAGGGCAGAGCAA [G2C G5C C6A U7C G8A U10A], the “exon inclusion enrichment index” value is 0.0904.

As to AGUUCACACAGGGAGCUCCAGCACAGUGAAAUGGACAGCAGGGCAGAGCAA [G5C C6A U7C G8A U10A A39C], the “exon inclusion enrichment index” value was 0.0137. In the case of AUAUACCACCGGGAGCUCCAGCACAGUGAAAUGGACAGAAGGGCAGAGCAA [G2U U3A G5A U7C G8A U10C] it was 3.36; in that of AGUUGCUGCUGGGAGCGGCAGCACAGUGAAAUGGACAGAAGGGCAGAGCAA [U17G C18G], 0.0429.

Turning to AGUUUUCGACGGGAGCUCCAGCACAGUGAAAUGGACAGAAGGGCAGAGCAA [G5U C6U U7C C9A U10C], the “exon inclusion enrichment index” value worked out at 2.91. In the case of AGUUUCUUUUGGGAGCUCCAGCACAGUGAACAGGACAGAAGGGCAGAGCAA [G5U G8U C9U A31C U32A] it was 0.077; in that of AGUUCUUCUCGGGAGCUCCAGCACAGUGAAAUGGACAAAAGGGCAGAGCAA [G5C C6U G8C C9U U10C G38A], 1.01; in that of AGUUGCUGCUGGGAGCUCCAGCACAGUGAAAUGGACAGAAGGGAUGAGCAA [C44A A45U], 0.469.

With AGUUAGGGAUGGGAGCAGCAGCACAGUGAAAUGGACAGAAGGGCAGAGCAA [G5A C6G U7G C9A U17A C18G], the “exon inclusion enrichment index” value was 0.00136.

For the variant AGUUCACACAGGGAGCUCCAGCACAGUGAAAUGGACUAAAGGGCAGAGCAA [G5C C6A U7C G8A U10A A37U G38A], the “exon inclusion enrichment index” value amounted to 0.0332.

As to AGUUCACACAGGGAGCUCCAGCACAGUGAAACAGACAGAAGGGCAGAGCAA [G5C C6A U7C G8A U10A U32C G33A], the “exon inclusion enrichment index” value came out at 0.033. As for AGUUUCUUUUGGGAGCUCCAGCACAGUUUAAUGGACAGAAGGGCAGAGCAA [G5U G8U C9U G28U A29U], the figure is 0.0195; as for AGUUUCUCUUGGGAGCUCCAGCACAGUGAAAUGGACAGAAGGGCAGAGCAA [G5U G8C C9U], 0.417; as for AGUUACCACCGGCCGCUCCAGCACAGUGAAAUGGACAGAAGGGCAGAGCAA [G5A U7C G8A U10C G13C A14C], 1.19. As for AGUUCGCGCCGGGAGCUUUAGCACAGUGAAAUGGACAGAAGGGCAGAGCAA [G5C C6G U7C U10C C18U C19U], the figure is 0.197. As for AGUUCACACAGGGAGCUCCAGCACAGUGAAAUGGGAAGAAGGGCAGAGCAA [G5C C6A U7C G8A U10A A35G C36A], the figure is 0.0625. With AGUUUUUGCUGGGAGCUCCAGCACAGUGAAAUGGACAGAAGGGCAGAGCAA [G5U C6U], the “exon inclusion enrichment index” value came out at 0.0058. In the case of AGUUCGCGCCGGGAGCUCCAGCAGUGUGAAAUGGACAGAAGGGCAGAGCAA [G5C C6G U7C U10C C24G A25U] it was 3.91; in that of AGUUACCACCGGGAGCUCCAGCACAGUGGGAUGGACAGAAGGGCAGAGCAA [G5A U7C G8A U10C A29G A30G], 1.92. In the case of AGUUAGGGAUGGGAGCUCCAGCACAGUGAAAUGGAGCGAAGGGCAGAGCAA [G5A C6G U7G C9A C36G A37C], the “exon inclusion enrichment index” value amounted to 0.00103. As for AGUUUCCCUUGGGAGCUCCAGCACAGUGAAAUGGACAGAAGGGCAGAGCAA [G5U U7C G8C C9U], the figure is 0.364; as for AGUUACCACCGGGAGCUCCAGCAUGGUGAAAUGGACAGAAGGGCAGAGCAA [G5A U7C G8A U10C C24U A25G], 3.39. As for AGUUGCUGCUGGGAGCUCCAGCACAGUGAAAUGCCCAGAAGGGCAGAGCAA [G34C A35C], the figure is 0.00408; as for AGUUCACACAGGGAGCUCCAGCCCAGUGAAAUGGACAGAAGGGCAGAGCAA [G5C C6A U7C G8A U10A A23C], 0.0903.

For AGUUAUACAUGGGAGCUCCAGCACAGUGAAAUGGACAGAAGGGCAGAGCAA [G5A C6U U7A G8C C9A], the “exon inclusion enrichment index” value is 0.286. In the case of AGUUGACGACGGGAGCUCCAGCACAGUGAAAUGGACAGAUAGGCAGAGCAA [C6A U7C C9A U10C A40U G41A] it was 0.347; in that of AGUUGAAGAAGGGAGCUCCAGCACAGUGAAAUGGACAGAAGGCGAGAGCAA [C6A U7A C9A U10A G43C C44G], 3.16; in that of AGUUCUUCUCGCAAGCUCCAGCACAGUGAAAUGGACAGAAGGGCAGAGCAA [G5C C6U G8C C9U U10C G12C G13A], 0.931.

As for AGUUAUAUAUGGGAGCUCCAGCACAGUGAACUGGACAGAAGGGCAGAGCAA [G5A C6U U7A G8U C9A A31C], the “exon inclusion enrichment index” value worked out at 0.077. In the case of AGUUCUUCUCGGGAGCUCCAGCACAGUGAAAUGGACAGAAGGGCAGUGCAA [G5C C6U G8C C9U U10C A47U], the “exon inclusion enrichment index” value amounted to 1.87. As for AGUUUCUUUUGGGAGCUCCAGCACAGUGAUCUGGACAGAAGGGCAGAGCAA [G5U G8U C9U A30U A31C], the figure is 0.0725; as for AGUUUCUUUUGGGAGCUCCAGCACAGUGAUUUGGACAGAAGGGCAGAGCAA [G5U G8U C9U A30U A31U], 0.0523. In the case of AGUUACCACCGGGAGCUCCAGCACAGUAGAAUGGACAGAAGGGCAGAGCAA [G5A U7C G8A U10C G28A A29G] it was 1.02. Regarding AGUUCUUCUCGUUAGCUCCAGCACAGUGAAAUGGACAGAAGGGCAGAGCAA [G5C C6U G8C C9U U10C G12U G13U], the “exon inclusion enrichment index” value was 0.0261. As for AGUUAGGGAUGGGAGCUCCAGCACAUCGAAAUGGACAGAAGGGCAGAGCAA [G5A C6G U7G C9A G26U U27C], the figure is 0.0253; as for AGUUCGCGCCGCGAGCUCCAGCACAGUGAAAUGGACAGAAGGGCAGAGCAA [G5C C6G U7C U10C G12C], 0.252; as for AGAUACCACCGGGAGCUCCAGCACAGUGAAAUGGACAGAAGGGCAGAGCAA [U3A G5A U7C G8A U10C], 3.2. AGUUACCACCGGGAGGUCCAGCACAGUGAAAUGGACAGAAGGGCAGAGCAA [G5A U7C G8A U10C C16G]: the “exon inclusion enrichment index” value is 1.39.

The record behind these values is the RNAGym collection of RNA variant scans (doi:10.1101/gr.219683.116).
